Test results reported in patent publication US12091454B2, “Humanized anti-human neurotensin receptor 1 antibodies and their uses” (DEVELOPMENT CENTER FOR BIOTECHNOLOGY, priority 2022, dated 2024).

Tests used:
[1] = test system: FaDu human head and neck cancer xenograft; experiment: Xenograft model of anti-NTSR1 ADCs (head and neck cancer); type: in vivo, male NOD SCID mice
Protocol: The aim of this study was to evaluate the in vivo anti-tumor efficacy of αNTSR1 (AKT2) 4seco-DUBA, αNTSR1 (AKT2 Hu/Hu) 4seco-DUBA, and αNTSR1 (AKT2 Hu/Hd) 4seco-DUBA in FaDu human head and neck cancer xenograft model in male NOD SCID mice.
Formulations respectively comprising test article αNTSR1 (AKT2) 4seco-DUBA, test article αNTSR1 (AKT2 Hu/Hu) 4seco-DUBA, test article αNTSR1 (AKT2 Hu/Hd) 4seco-DUBA, and Hu IgG were formulated by diluting the stock with a 25 mM sodium citrate buffer (pH 6.5). […]
The FaDu cells were maintained in vitro as a monolayer culture in RPMI-1640 medium supplemented with 10% fetal bovine serum at 37° C. in an atmosphere of 5% CO2 in air. The tumor cells were routinely sub-cultured twice weekly by trypsin-EDTA treatment. The cells growing in an exponential growth phase were harvested and counted for tumor inoculation.
Male NOD SCID mice at age of 6-7 weeks were quarantined for one week. Five mice were housed in each cage. All animals were hosted in the animal facility with a 12-h light/12-h dark cycle at 19-25° C. Animals had free access to rodent pellet foods and water ad libitum.
FaDu cells were subcutaneously (SC) implanted (4×10^6 cells in 1:1 PBS/matrigel mixture at 0.1 mL per mouse) into the right flank of male NOD SCID mice. When the average tumor volume had reached about 200 mm^3, the mice were randomly divided into 7 groups (N=6 per group). Each of Hu IgG, αNTSR1 (AKT2) 4seco-DUBA (5 mg/kg), αNTSR1 (AKT2 Hu/Hu) 4seco-DUBA (5 mg/kg), and αNTSR1 (AKT2 Hu/Hd) 4seco-DUBA (5 mg/kg) was intravenously administered twice weekly for 3 weeks.
The tumor volumes, body weights, mortality, and signs of overt toxicity were monitored and recorded three times weekly for 28 days. Tumor volumes (mm^3) were measured three times per week using calipers and calculated according to the formula: Tumor Volume=(w^2×l)/2, where w=width and l=length in diameter (mm) of the tumor. The percentages of tumor growth inhibition (TGI) were calculated using the following formula: % TGI=[1−(T/C)]×100%, where T and C represent the mean tumor volumes of the treatment group and the control group, respectively. A TGI (%) value≥58% was considered as indicating significant anti-tumor activity. Animals were weighed three times weekly until the completion of the study.

FaDu cells = experiment: In vitro cytotoxicity study (CELLTITER-GLO); type: cell-based, human; conditions: 72 hours treatment, cell viability, read-out: Relative IC50
Protocol: Human head and neck cancer cell line FaDu was respectively grown in RPMI-1640 medium (ATCC® modification) supplemented with 10% fetal bovine serum. The FaDu cell lines were maintained in an atmosphere of 5% CO2 in a humidified 37° C. incubator. The day before treatment, cells were collected and seeded into 96-well plates (4,000 cells per well). Each treatment was performed in eight triplicate data points. After the treatment of 72 hours, cell viability was assessed by CELLTITER-GLO® kit (PROMEGA®) according to the manufacturer's instruction. At the end of the incubation, luminescence was measured using a SpectraMax i3x Multi Mode Detection Platform (MOLECULAR DEVICES®). Compound cytotoxicity was evaluated in comparison to cells treated with 0.05% PBS (ADCs) or 0.05% DMSO (toxic payload). IC50 values were calculated by fitting viability data with a four-parameter logistic equation using GRAPHPAD® prism 5.0 software.

B1: αNTSR1 (AKT2 Hu/Hd) 4seco-DUBA: antibody-drug conjugate of humanized antibody AKT2 HuHd with seco-DUBA payload (conjugate)
heavy chain: QVQLVQSGAEVKKPGASVKVSCKASGYAFTSSWIHWVRQAPGQGLEWMGQIRPNSGNTYYNEKFKVRVTMTRDTSTSTVYMELSSLRSEDTAVYYCARYHYGFDYWGQGTLVTVSS
light chain: DIQMTQSPSSLSASVGDRVTITCRSSQSIVHSNGNTYLEWYQQKPGKAPKLLIYKVSNRFSGVPSRFSGSGSGTDFTLTISSLQPEDFATYYCFQGAHLPWTFGQGTKVEIK
FaDu tumor growth ([1]; 5 mg/kg, Day 10 to Day 17): significantly reduced FaDu tumor growth | TGI % (1-T/C) Day 0 ([1]; 5 mpk, IV, BIW × 3, Day 0): 0.0% | TGI % (1-T/C) Day 3 ([1]; 5 mpk, IV, BIW × 3, Day 3): 6.6% | TGI % (1-T/C) Day 5 ([1]; 5 mpk, IV, BIW × 3, Day 5): 29.8% | TGI % (1-T/C) Day 7 ([1]; 5 mpk, IV, BIW × 3, Day 7): 56.1% | TGI % (1-T/C) Day 10 ([1]; 5 mpk, IV, BIW × 3, Day 10): 60.9% | TGI % (1-T/C) Day 12 ([1]; 5 mpk, IV, BIW × 3, Day 12): 62.7% | TGI % (1-T/C) Day 14 ([1]; 5 mpk, IV, BIW × 3, Day 14): 65.2% | TGI % (1-T/C) Day 17 ([1]; 5 mpk, IV, BIW × 3, Day 17): 76.6% | IC50 (FaDu cells): 55 nM
